# How the values were obtained:
# FR = biological target: T1, FR (Homo sapiens, UniProt P15328); experiment: FR-binding affinity (KD) on FR-positive IGROV-1 cells; conditions: 1 h at 4° C., specific binding (excess folic acid block)
# T1 construct: FR-positive IGROV-1 cells (human ovarian carcinoma cell line); endogenous in cells; host or cells: IGROV-1 human ovarian carcinoma cells
# Method: The determination of the KD values was performed as previously reported (Deberle, L. M. et al; Bioconj Chem 2021, 32, p. 1617). FR-positive IGROV-1 cells (human ovarian carcinoma cell line, kindly provided by Dr. Gerrit Janssen, Free University Medical Center Amsterdam, The Netherlands) were seeded in 48-well plates (2.5×10^5 cells/well) in 500 μL FFRPMI medium with supplements. The cells were incubated at 37° C. and 5% CO2 to allow cell adhesion overnight. The experiment was performed on ice using ice-cold medium and buffer solutions. After removal of the supernatant, the cells were rinsed once with PBS prior to the addition of FFRPMI medium without supplements (450 μL/well). The respective folate radioconjugate of the disclosure (20 MBq/nmol) was added to each well at variable concentrations (in the range of 0.1 to 500 nM, 50 μL per well). […] The IGROV-1 tumor cells were incubated for 1 h at 4° C. on a shaker, followed by removal of the supernatants and rinsing the cells twice with PBS. After lysis of the cells with NaOH solution (1 M, aq., 500 μL), the samples were counted for activity in a γ-counter (Wallac Wizard 1480, Perkin Elmer). The counts per minute (cpm) of the specific binding (determined by subtracting the cpm of the unspecific binding from the cpm of total binding), were plotted against the molar concentration of the added folate radioconjugates of the disclosure. […]
# [1] = biological target: T2, albumin in human blood plasma (Homo sapiens, UniProt P02768); experiment: Albumin-bound fraction, ultrafiltration filter assay, human blood plasma; type: in vitro ADME; conditions: 37° C., 30 min, percentage of total activity measured
# T2 construct: tissue Stiftung Blutspende SRK Aargau-Solothurn, Switzerland; host or cells: human blood plasma
# T2 sequence (P02768 25-609): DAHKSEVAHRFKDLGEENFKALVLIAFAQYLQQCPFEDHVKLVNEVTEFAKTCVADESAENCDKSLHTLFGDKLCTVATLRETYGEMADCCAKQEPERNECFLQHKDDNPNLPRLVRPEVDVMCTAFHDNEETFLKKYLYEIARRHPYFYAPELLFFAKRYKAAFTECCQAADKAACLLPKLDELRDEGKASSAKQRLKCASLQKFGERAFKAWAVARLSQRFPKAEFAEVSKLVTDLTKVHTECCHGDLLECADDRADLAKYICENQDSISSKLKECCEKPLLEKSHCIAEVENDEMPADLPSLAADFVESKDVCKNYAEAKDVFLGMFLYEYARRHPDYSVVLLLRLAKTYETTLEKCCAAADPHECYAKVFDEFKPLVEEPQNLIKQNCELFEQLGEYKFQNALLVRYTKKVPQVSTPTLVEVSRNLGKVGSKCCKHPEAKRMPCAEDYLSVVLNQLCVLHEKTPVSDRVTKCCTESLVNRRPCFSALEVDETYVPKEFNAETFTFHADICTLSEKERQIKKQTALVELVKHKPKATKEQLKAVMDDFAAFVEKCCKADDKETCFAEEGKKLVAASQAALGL
# Method: (§1) Albumin-binding properties were determined in mouse and human blood plasma. The albumin-binding properties of the folate radioconjugates of the disclosure in mouse blood plasma (Rockland Immunochemicals, Inc., USA) and human blood plasma (Stiftung Blutspende SRK Aargau-Solothurn, Switzerland) were determined using an ultrafiltration method (Deberle, L. M. et al., Molecules 2020, 25, (11)). The amount of serum albumin in mouse (MSA) and human (HSA) blood plasma was defined as 550 μM and 800 μM, respectively, based on measurements using a dry chemistry analyzer (DRI-CHEM 4000i, FUJIFILM, Japan). The folate radioconjugates of the disclosure (50 MBq/nmol, ca. 300 kBq, 0.006 nmol in 15 μL) were added to samples of mouse and human blood plasma (150 μL), followed by incubation of the samples at 37° C. for 30 min. The samples were loaded on Amicon centrifugal filters (cut-off of 10 kDa; Merck Millipore) followed by centrifugation (14,000 rcf, 30 min, 4° C.) to allow the separation of the plasma-bound from the plasma-unbound (free) fractions of each sample. […] The activity of the protein-bound fraction as well as the activity in the filtrate and in the filter unit were measured separately in a gamma-counter (Perkin Elmer, Wallac Wizard 1480). The percentage of radioconjugate bound to mouse and human albumin, respectively, was set in relation to the total activity measured (Table 4).
# [2] = biological target: T3, mouse serum albumin (MSA) (Mus musculus, UniProt P07724); experiment: Relative albumin-binding affinity (B50), mouse blood plasma; type: in vitro ADME; conditions: inverse ratio of B50, normalized to [^177Lu]Lu-OxFol-1 (set as 1.0)
# T3 construct: The amount of serum albumin in mouse (MSA) and human (HSA) blood plasma was defined as 550 μM and 800 μM; tissue Rockland Immunochemicals, Inc., USA; host or cells: mouse blood plasma
# T3 sequence (P07724 25-608): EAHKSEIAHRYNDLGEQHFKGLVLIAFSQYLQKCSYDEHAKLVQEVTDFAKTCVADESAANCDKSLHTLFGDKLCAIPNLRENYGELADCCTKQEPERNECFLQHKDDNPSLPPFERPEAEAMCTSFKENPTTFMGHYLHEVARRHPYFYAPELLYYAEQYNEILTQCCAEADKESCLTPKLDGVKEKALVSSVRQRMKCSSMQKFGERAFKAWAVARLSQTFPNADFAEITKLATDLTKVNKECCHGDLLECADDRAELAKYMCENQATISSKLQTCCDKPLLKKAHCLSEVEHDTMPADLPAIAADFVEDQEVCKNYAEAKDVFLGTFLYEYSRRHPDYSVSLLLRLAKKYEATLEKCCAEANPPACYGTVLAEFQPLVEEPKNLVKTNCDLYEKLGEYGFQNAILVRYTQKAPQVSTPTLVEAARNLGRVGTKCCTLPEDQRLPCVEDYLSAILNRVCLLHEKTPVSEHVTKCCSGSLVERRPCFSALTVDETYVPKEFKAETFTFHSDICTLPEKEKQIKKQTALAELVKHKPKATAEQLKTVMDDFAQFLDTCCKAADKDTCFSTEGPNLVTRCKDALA
# Method: (§2) Relative albumin-binding affinity of the folate radioconjugates of the disclosure: The albumin-binding affinity of the folate radioconjugates of the disclosure was assessed and compared to that of [^177Lu]Lu-OxFol-1. A fixed amount of radioconjugate (50 MBq/nmol), ^˜300 kBq, 15 μL, 0.006 nmol) was added to a defined volume (150 μL) of mouse and human blood plasma and various dilutions thereof in PBS pH 7.4, resulting in defined mouse serum albumin (MSA)-to-folate radioconjugate or human serum albumin (HSA)-to-folate radioconjugate molar concentration ratios ranging from 0.01 to 12′500 and 0.01 to 20′000, respectively. The albumin-bound fraction was determined using an ultrafiltration device as described above.
# (§3) The data were analyzed using a semi-logarithmic plot assuming a maximum binding of 100%. The Hill equation was fitted to the data points and the half-maximum binding (B50) was determined based on the obtained binding curves (GraphPad Prism software, version 8). The relative albumin-binding affinities were defined as the inverse ratio of the B50 value of each radioconjugate of the disclosure to the reference compound [^177Lu]Lu-OxFol-1 (set as 1.0). […] The results were presented as average±SD of 2-3 independent experiments (Table 5).
# [3] = biological target: T4, albumin in mouse blood plasma (Mus musculus, UniProt P07724); experiment: Albumin-bound fraction, ultrafiltration filter assay, mouse blood plasma; type: in vitro ADME; conditions: 37° C., 30 min, percentage of total activity measured
# T4 construct: tissue Rockland Immunochemicals, Inc., USA; host or cells: mouse blood plasma
# T4 sequence (P07724 25-608): as above
# Method: as §1
# [4] = n-octanol/PBS distribution coefficient (log D); type: physicochemical; conditions: n-octanol/PBS pH 7.4, mean±SD
# Method: Example 5: PBS/n-Octanol Distribution Coefficient (Log D Values) The n-octanol/PBS distribution coefficients (log D values) were determined for each folate radioconjugate of the disclosure and a reference compound in order to assess their hydrophilic/hydrophobic properties. The log D values of the folate radioconjugates of the disclosure (50 MBq/nmol) were determined as previously reported, after dilution in PBS pH 7.4 to obtain an activity concentration of 10 MBq/500 μL. A sample of each radiofolate (ca. 0.5 MBq, 25 μL, 0.01 nmol) was added to a mixture of 1475 μL PBS pH 7.4 and 1500 μL n-octanol. The vials were vortexed vigorously for 1 min followed by centrifugation for 6 min at 2500 rpm for phase separation. An aliquot was taken from each phase and measured in a gamma-counter (Perkin Elmer, Wallac Wizard 1480). The distribution coefficients were calculated as the logarithm of the ratio of counts per minute (cpm) measured in the n-octanol phase relative to the cpm measured in the PBS phase. The results were listed as mean±SD of the data obtained from 3-4 independent experiments, each performed with five replicates.
# [5] = biological target: T5, human serum albumin (HSA) (Homo sapiens, UniProt P02768); experiment: Relative albumin-binding affinity (B50), human blood plasma; type: in vitro ADME; conditions: inverse ratio of B50, normalized to [^177Lu]Lu-OxFol-1 (set as 1.0)
# T5 construct: tissue Stiftung Blutspende SRK Aargau-Solothurn, Switzerland; host or cells: human blood plasma
# T5 sequence (P02768 25-609): as the sequence (P02768 25-609) above
# Method: as §2, §3
# T1 sequence (P15328 25-234): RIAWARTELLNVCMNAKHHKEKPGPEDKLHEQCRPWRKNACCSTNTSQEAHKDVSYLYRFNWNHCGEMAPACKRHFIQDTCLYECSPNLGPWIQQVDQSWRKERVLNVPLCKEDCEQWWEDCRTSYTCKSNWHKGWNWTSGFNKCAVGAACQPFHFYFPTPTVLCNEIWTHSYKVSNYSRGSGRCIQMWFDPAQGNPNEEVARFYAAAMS
compound,measurement,setting,value
"Nc1nc2ncc(CNc3ccc(C(=O)N[C@@H](CCC(=O)N[C@@H](CCCCNC(=O)CN4CCN(CC(=O)O)CCN(CC(=O)O)CCN(CC(=O)O)CC4)C(=O)N[C@@H](CCCCNC(=O)CCCc4ccc(I)cc4)C(=O)O)C(=O)O)cc3)nc2c(=O)[nH]1 [[^177Lu]Lu-OxFol-1, metal not drawn]",Kd,FR,2.8 nM
same,"Albumin-bound fraction, human blood plasma",[1],96%
same,"Relative albumin-binding affinity, mouse plasma",[2],1.00
same,"Albumin-bound fraction, mouse blood plasma",[3],90%
same,logD Value,[4],−4.2 ± 0.2
same,"Relative albumin-binding affinity, human plasma",[5],1.00
